Experiment [1] has as its target Goat IgG. The experiment can be described thus: photo-crosslinking, 365 nm 2 hrs, SDS-PAGE (FIG. 6).
The target of experiment [2] is Goat IgG. Described as above. The source holds these as a separate data set.

Like-named read-outs stand apart in the source and are kept apart here.

As to “Protein L C* domain T46BPA (designed binder)”, the conjugation efficiency with Goat IgG [1] is 30 to 50%; with Goat IgG [2] it was 50%.

The record behind these values is patent US20260043807A1.
